No end group written: not given here.
Experiments:
Test in all cases: PIF-agarose affinity extraction, liver lysate column of Table 4
[1] = biological target: T1, PRDX4 (human, UniProt Q13162 38-271)
T1 sequence (looked up): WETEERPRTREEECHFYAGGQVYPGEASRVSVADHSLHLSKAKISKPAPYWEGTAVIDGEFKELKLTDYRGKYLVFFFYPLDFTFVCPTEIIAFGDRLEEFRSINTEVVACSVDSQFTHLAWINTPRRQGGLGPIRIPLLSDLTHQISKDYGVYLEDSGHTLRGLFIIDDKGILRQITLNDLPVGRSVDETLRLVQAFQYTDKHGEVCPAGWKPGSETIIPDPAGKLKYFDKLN

[2] = biological target: Annexin A2 (human, UniProt P07355 2-339)
[3] = biological target: T2, Thioredoxin (human, UniProt P10599 2-105)
T2 sequence (looked up): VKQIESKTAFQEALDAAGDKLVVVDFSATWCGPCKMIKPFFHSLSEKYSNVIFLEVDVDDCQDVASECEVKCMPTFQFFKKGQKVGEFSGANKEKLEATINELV

[4] = biological target: Isoform 2 of Protein SET (human, UniProt Q01105-2 2-277)
[5] = biological target: T3, Cytochrome P450 26A1 (human, UniProt O43174 1-497)
T3 sequence (looked up): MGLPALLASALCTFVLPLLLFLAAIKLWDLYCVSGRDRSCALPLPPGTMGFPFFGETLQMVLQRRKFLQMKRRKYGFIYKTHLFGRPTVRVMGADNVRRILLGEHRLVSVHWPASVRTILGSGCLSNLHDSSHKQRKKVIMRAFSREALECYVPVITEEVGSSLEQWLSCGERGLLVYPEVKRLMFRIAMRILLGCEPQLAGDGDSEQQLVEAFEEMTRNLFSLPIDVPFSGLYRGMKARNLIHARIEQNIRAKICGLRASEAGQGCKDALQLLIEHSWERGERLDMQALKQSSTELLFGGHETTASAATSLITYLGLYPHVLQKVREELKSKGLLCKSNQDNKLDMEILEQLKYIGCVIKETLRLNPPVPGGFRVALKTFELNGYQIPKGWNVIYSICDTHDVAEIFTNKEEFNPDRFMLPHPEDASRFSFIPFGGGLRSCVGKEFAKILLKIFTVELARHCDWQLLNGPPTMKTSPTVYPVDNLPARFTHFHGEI

[6] = biological target: Nucleolin (human, UniProt P19338 2-710)
[7] = biological target: Isoform 2 of Tropomyosin alpha-3 chain (human, UniProt P06753-2 2-248)
[8] = biological target: Isoform 2 of Tropomyosin alpha-4 chain (human, UniProt P67936-2 1-284)
[9] = biological target: ATP synthase subunit beta, mitochondrial (human, UniProt P06576 48-529)
[10] = biological target: T4, 14-3-3 protein zeta/delta (human, UniProt P63104 1-245)
T4 sequence (looked up): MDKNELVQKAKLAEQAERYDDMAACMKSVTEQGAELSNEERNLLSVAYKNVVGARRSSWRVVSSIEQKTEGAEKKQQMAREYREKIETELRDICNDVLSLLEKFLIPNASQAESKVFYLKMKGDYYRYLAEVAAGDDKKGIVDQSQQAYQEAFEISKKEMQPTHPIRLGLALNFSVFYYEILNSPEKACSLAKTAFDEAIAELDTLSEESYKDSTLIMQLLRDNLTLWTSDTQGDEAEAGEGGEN

[11] = biological target: T5, 14-3-3 protein theta (human, UniProt P27348 1-245)
T5 sequence (looked up): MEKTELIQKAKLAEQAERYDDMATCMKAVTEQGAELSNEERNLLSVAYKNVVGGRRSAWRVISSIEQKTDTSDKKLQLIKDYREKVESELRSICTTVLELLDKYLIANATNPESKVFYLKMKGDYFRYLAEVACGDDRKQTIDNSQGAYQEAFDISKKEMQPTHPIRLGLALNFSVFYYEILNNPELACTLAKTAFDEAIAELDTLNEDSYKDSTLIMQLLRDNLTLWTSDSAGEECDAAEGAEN

[12] = biological target: T6, D-3-phosphoglycerate dehydrogenase (human, UniProt O43175 2-533)
T6 sequence (looked up): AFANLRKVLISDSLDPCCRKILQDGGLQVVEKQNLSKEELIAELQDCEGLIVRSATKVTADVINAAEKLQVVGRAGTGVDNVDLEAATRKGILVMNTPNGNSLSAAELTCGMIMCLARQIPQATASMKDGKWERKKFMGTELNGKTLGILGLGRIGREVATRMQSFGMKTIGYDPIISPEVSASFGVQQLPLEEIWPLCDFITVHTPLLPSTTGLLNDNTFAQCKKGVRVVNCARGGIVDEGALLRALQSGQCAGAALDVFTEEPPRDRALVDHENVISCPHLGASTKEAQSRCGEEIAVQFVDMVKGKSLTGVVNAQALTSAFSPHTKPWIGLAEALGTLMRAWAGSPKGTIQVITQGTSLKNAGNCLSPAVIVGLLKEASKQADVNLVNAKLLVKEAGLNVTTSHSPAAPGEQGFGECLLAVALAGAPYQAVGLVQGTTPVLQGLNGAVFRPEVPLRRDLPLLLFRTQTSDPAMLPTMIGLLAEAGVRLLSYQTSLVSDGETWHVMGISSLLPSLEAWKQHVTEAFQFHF

[13] = biological target: Actin, alpha skeletal muscle (human, UniProt P68133 3-377)
[14] = biological target: Acidic leucine-rich nuclear phosphoprotein 32 family Member A (human, UniProt P39687 1-249)
[15] = biological target: Isoform 2 of Tropomyosin beta chain (human, UniProt P07951-2 1-284)

Measured: binding result

B1: sPIF-1(15) (peptide)
peptide: MVRIKPGSANKPSDD
modifications: also: coupled to agarose support
notes: also called synthetic preimplantation factor
binds: all assays above

— patent US20230190867A1 (BIOINCEPT, published 2023)
